According to publication doi:10.1101/2024.01.22.576751 (bioRxiv, 2024):

Target: the molecule itself
Assay: cryo-EM structure

B1: Escherichia coli mechanosensitive channel of small conductance MscS, wild type (natural protein, E. coli, UniProt P0C0S1 1-286, looked up)
chain: MEDLNVVDSINGAGSWLVANQALLLSYAVNIVAALAIIIVGLIIARMISNAVNRLMISRKIDATVADFLSALVRYGIIAFTLIAALGRVGVQTASVIAVLGAAGLAVGLALQGSLSNLAAGVLLVMFRPFRAGEYVDLGGVAGTVLSVQIFSTTMRTADGKIIVIPNGKIIAGNIINFSREPVRRNEFIIGVAYDSDIDQVKQILTNIIQSEDRILKDREMTVRLNELGASSINFVVRVWSNSGDLQNVYWDVLERIKREFDAAGISFPYPQMDVNFKRVKEDKAA
- stoichiometry N: 7
